In patent US5703220, “Genes encoding melanocertin-4 receptor and methods of use” (The Regents Of The University Of Michigan, dated 1997):
No end group written: not given here.

T1: mouse melanocortin-5 (mMC5) receptor (mouse)
T1 chain: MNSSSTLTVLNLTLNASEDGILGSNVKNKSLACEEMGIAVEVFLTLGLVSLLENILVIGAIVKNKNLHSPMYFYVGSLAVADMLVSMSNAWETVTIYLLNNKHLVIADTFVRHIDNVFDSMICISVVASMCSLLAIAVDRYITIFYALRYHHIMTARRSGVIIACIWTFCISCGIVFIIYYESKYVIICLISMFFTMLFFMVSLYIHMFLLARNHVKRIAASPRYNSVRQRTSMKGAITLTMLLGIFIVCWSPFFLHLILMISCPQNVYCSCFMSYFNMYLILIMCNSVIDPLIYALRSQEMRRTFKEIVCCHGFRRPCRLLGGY

T2: human melanocortin-1 (MC1) receptor (human)
T2 chain: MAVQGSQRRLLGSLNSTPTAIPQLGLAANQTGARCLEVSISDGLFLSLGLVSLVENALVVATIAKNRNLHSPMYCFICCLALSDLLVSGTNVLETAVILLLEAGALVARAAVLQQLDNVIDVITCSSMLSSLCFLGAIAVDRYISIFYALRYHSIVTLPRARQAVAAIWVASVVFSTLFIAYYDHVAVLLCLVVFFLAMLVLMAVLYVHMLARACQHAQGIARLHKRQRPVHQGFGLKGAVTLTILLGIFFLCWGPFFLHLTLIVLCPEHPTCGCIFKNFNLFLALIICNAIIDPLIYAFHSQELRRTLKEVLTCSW


Tests used:
[1] = target: T1, mouse melanocortin-5 (mMC5) receptor; experiment: competition with radio-iodinated NDP-MSH on L-cells transfected with the mMC5 receptor
[2] = target: human melanocortin-3 (MC3) receptor (human); experiment: cell-based or functional assay
Sequence of human melanocortin-3 (MC3) receptor (human) (chain, as listed by the source limits assumed): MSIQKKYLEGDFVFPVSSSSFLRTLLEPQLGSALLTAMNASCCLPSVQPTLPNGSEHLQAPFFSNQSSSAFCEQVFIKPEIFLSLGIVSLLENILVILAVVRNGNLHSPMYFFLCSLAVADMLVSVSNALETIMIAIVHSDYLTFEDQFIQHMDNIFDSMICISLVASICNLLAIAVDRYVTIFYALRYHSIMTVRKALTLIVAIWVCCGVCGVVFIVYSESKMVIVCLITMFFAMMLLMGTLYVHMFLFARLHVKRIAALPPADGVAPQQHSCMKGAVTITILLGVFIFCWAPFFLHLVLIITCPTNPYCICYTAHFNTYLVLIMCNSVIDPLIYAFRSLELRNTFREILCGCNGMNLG

[3] = target: T2, human melanocortin-1 (MC1) receptor; experiment: cell-based or functional assay
[4] = target: human melanocortin-4 (MC4) receptor (human); experiment: cell-based or functional assay
Sequence of human melanocortin-4 (MC4) receptor (human) (chain, as listed by the source): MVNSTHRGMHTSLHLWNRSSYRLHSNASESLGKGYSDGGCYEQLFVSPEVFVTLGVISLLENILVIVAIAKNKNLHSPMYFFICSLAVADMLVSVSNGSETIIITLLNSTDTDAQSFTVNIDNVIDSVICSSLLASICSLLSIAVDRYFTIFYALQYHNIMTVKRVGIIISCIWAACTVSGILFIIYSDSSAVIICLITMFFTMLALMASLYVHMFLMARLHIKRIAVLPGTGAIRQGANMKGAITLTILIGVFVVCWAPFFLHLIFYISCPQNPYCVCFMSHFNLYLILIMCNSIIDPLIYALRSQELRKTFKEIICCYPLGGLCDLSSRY

Binder	binding result [1]	ED50 of cAMP generation in transfected L-cells [2] [nM]	ED50 of cAMP generation in transfected L-cells [3] [nM]	EC50 of cAMP increase in transfected L-cells [4] [nM]	fold greater binding affinity than ACTH (1-39) [1] [fold]
SYSMEHFRWGKPVGKKRRPVKVYPNGAEDESAEAFPLEF [human ACTH (1-39)]	binds	~1	~1	1	–
Ac-SYSMEHFRWGKPV (ends and bridges not checked) [α-MSH]	–	~1	~1	–	–
SYSMEHFRWGKPV [ACTH (1-13)]	–	–	–	–	~10
